Laboratory results as given in the supplement of paper PMC9112550, “Optimization of the antimicrobial peptide Bac7 by deep mutational scanning” (BMC Biology, 2022).

Each sequence was assayed on Escherichia coli TOP10 (assay: shrunken log2 fold change of peptide-encoding DNA abundance (4.5 h post-induction vs induction); higher = less antimicrobial activity (less host growth inhibition)). Conditions: time post-induction: 4.5 h; library: site-saturation at positions 5, 18, 19, 20.
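Note: peptides expressed intracellularly from a pBAD plasmid library in pooled LB shake-flask culture, induced with 0.3% L-arabinose, DNA abundance read by NGS, three biological replicates, DESeq2 with apeglm shrinkage.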

Sequence	shrunken log2 fold change
RRIRYRPPRLPRPRPRPCFGPRP	-0.0967
RRIRVRPPRLPRPRPRPEWDPRP	0.454
RRIRIRPPRLPRPRPRPGVRPRP	0.135
RRIRKRPPRLPRPRPRPLPWPRP	0.814
RRIRNRPPRLPRPRPRPHTYPRP	-0.501
RRIRSRPPRLPRPRPRPMCQPRP	-0.0136
RRIRSRPPRLPRPRPRPPCVPRP	0.00342
RRIRVRPPRLPRPRPRPAHGPRP	0.0221
RRIRWRPPRLPRPRPRPWKQPRP	0.296
RRIRSRPPRLPRPRPRPHYNPRP	-1.04
RRIRERPPRLPRPRPRPQTHPRP	-0.359
RRIRTRPPRLPRPRPRPHVNPRP	-0.0758
RRIRDRPPRLPRPRPRPICHPRP	0.139
RRIRTRPPRLPRPRPRPFNVPRP	-0.029
RRIRARPPRLPRPRPRPARFPRP	1.03
RRIRARPPRLPRPRPRPNHMPRP	-0.299
RRIRCRPPRLPRPRPRPGTAPRP	0.292
RRIRFRPPRLPRPRPRPTEYPRP	-0.423
RRIRIRPPRLPRPRPRPLWVPRP	0.0248
RRIRERPPRLPRPRPRPWCLPRP	-0.746
RRIRTRPPRLPRPRPRPLDYPRP	-2.42
RRIRSRPPRLPRPRPRPQIEPRP	0.0319

Sequence	shrunken log2 fold change
RRIRKRPPRLPRPRPRPQTAPRP	0.385
RRIRMRPPRLPRPRPRPRNNPRP	0.063
RRIRLRPPRLPRPRPRPTGEPRP	0.205
RRIRERPPRLPRPRPRPDAGPRP	-0.0396
RRIRSRPPRLPRPRPRPPSDPRP	0.385
RRIRFRPPRLPRPRPRPEMWPRP	-0.0843
RRIRYRPPRLPRPRPRPATIPRP	-1.16
RRIRRRPPRLPRPRPRPENHPRP	0.0228
RRIRIRPPRLPRPRPRPGGLPRP	-0.16
RRIRKRPPRLPRPRPRPKVVPRP	0.223
RRIRVRPPRLPRPRPRPQWKPRP	-0.207
RRIRTRPPRLPRPRPRPGAQPRP	0.283
RRIRCRPPRLPRPRPRPVITPRP	-0.496
RRIRVRPPRLPRPRPRPGYNPRP	-0.193
RRIRLRPPRLPRPRPRPVDCPRP	-0.456
RRIRVRPPRLPRPRPRPYDWPRP	-0.206
RRIRARPPRLPRPRPRPSCAPRP	0.689
RRIRRRPPRLPRPRPRPREYPRP	0.2
RRIRPRPPRLPRPRPRPPCWPRP	0.468
RRIRYRPPRLPRPRPRPGYTPRP	0.0577
RRIRFRPPRLPRPRPRPKADPRP	-0.0989
RRIRSRPPRLPRPRPRPIYHPRP	-0.884

Sequence	shrunken log2 fold change
RRIRIRPPRLPRPRPRPAFKPRP	-0.317
RRIRDRPPRLPRPRPRPWSFPRP	0.0765
RRIRYRPPRLPRPRPRPALIPRP	-0.273
RRIRIRPPRLPRPRPRPRFRPRP	0.0756
RRIRARPPRLPRPRPRPVRYPRP	2.39
RRIRYRPPRLPRPRPRPWWLPRP	-0.0627
RRIRQRPPRLPRPRPRPSFIPRP	-0.807
RRIRYRPPRLPRPRPRPNMMPRP	-0.645
RRIRWRPPRLPRPRPRPEKSPRP	0.486
RRIRARPPRLPRPRPRPVLMPRP	0.199
RRIRVRPPRLPRPRPRPMLHPRP	-0.192
RRIRKRPPRLPRPRPRPTHIPRP	0.328
RRIRHRPPRLPRPRPRPHPIPRP	-0.107
RRIRPRPPRLPRPRPRPVCMPRP	0.132
RRIRMRPPRLPRPRPRPVPGPRP	0.882
RRIRTRPPRLPRPRPRPYGVPRP	0.0122
RRIRARPPRLPRPRPRPSWGPRP	0.0646
RRIRHRPPRLPRPRPRPNFEPRP	0.00825
RRIRTRPPRLPRPRPRPFTKPRP	-0.0107
RRIRVRPPRLPRPRPRPMGVPRP	-0.0267
RRIRLRPPRLPRPRPRPCLTPRP	-0.304
RRIRGRPPRLPRPRPRPKFWPRP	0.533

Sequence	shrunken log2 fold change
RRIRKRPPRLPRPRPRPCRYPRP	-0.00884
RRIRKRPPRLPRPRPRPHFTPRP	-0.0881
RRIRLRPPRLPRPRPRPEHSPRP	-0.0185
RRIRSRPPRLPRPRPRPGYAPRP	0.111
RRIRHRPPRLPRPRPRPRKVPRP	-0.0134
RRIRGRPPRLPRPRPRPDDMPRP	0.00936
RRIRYRPPRLPRPRPRPGWRPRP	0.386
RRIRTRPPRLPRPRPRPTRIPRP	-0.204
RRIRLRPPRLPRPRPRPPIQPRP	0.174
RRIRARPPRLPRPRPRPLSPPRP	0.0788
RRIRTRPPRLPRPRPRPHRGPRP	-0.154
RRIRNRPPRLPRPRPRPMQNPRP	-0.11
RRIRPRPPRLPRPRPRPNWGPRP	-0.057
RRIRIRPPRLPRPRPRPTQCPRP	-0.65
RRIRVRPPRLPRPRPRPNTIPRP	-0.571
RRIRARPPRLPRPRPRPQACPRP	0.0559
RRIRGRPPRLPRPRPRPNYWPRP	-0.115
RRIRRRPPRLPRPRPRPGQSPRP	0.155
RRIRLRPPRLPRPRPRPSDWPRP	-0.106
RRIRIRPPRLPRPRPRPNSEPRP	-0.686
RRIRHRPPRLPRPRPRPFCPPRP	-0.772
RRIRHRPPRLPRPRPRPNYYPRP	-0.639

Sequence	shrunken log2 fold change
RRIRHRPPRLPRPRPRPTAPPRP	0.184
RRIRSRPPRLPRPRPRPAVRPRP	-0.103
RRIRERPPRLPRPRPRPAQKPRP	0.192
RRIRLRPPRLPRPRPRPGINPRP	-0.354
RRIRIRPPRLPRPRPRPHYCPRP	-0.0772
RRIRPRPPRLPRPRPRPMHGPRP	0.0373
RRIRSRPPRLPRPRPRPDVIPRP	0.0141
RRIRVRPPRLPRPRPRPGRNPRP	-0.00746
RRIRVRPPRLPRPRPRPLKMPRP	-0.561
RRIRWRPPRLPRPRPRPDRLPRP	-0.0216
RRIRIRPPRLPRPRPRPERGPRP	0.183
RRIRRRPPRLPRPRPRPETRPRP	0.644
RRIRGRPPRLPRPRPRPLEHPRP	0.594
RRIRIRPPRLPRPRPRPNYMPRP	-0.177
RRIRKRPPRLPRPRPRPFWNPRP	-0.0468
RRIRQRPPRLPRPRPRPATGPRP	0.0181
RRIRSRPPRLPRPRPRPTFEPRP	0.0262
RRIRIRPPRLPRPRPRPQISPRP	0.0222
RRIRCRPPRLPRPRPRPMHRPRP	0.0421
RRIRERPPRLPRPRPRPHECPRP	-0.0253
RRIRDRPPRLPRPRPRPGNWPRP	-0.0358
